Data reported in US20160333065A1 (ACADEMISCH ZIEKENHUIS LEIDEN H O D N LUMC, published 2016).

The binders below were run against T1, HLA-B35 (B*3501) (human) (assay: cell competition vs NPDIVC(FI)YQY, stripped BVR B-LCL, FACS).
T1 construct: Acid-stripped B-LCL

| IC50 | Binder |
| --- | --- |
| 1.58 µM | LPRELFPPLF (also called start 48) [PRAME peptide LPRELFPPLF] |
| 2.6 µM | GACDELFSY (also called start 186) [PRAME peptide GACDELFSY] |

More lines, now with the values behind:

| Binder | IC50 |
| --- | --- |
| LPRELFPPL (also called start 48) [PRAME peptide LPRELFPPL] | < 1 µM |
| EPILCPCFM (also called start 499) [PRAME peptide EPILCPCFM] | < 1 µM |
| SPYLGQMINL [PRAME peptide SPYLGQMINL] | 1.98 µM |
| QPFIPVEVL (also called start 170) [PRAME peptide QPFIPVEVL] | 2.83 µM |
| FPPLFMAAF (also called start 53) [PRAME peptide FPPLFMAAF] | < 1 µM |
| IPVEVLVDL (also called start 173) [PRAME peptide IPVEVLVDL] | 2.24 µM |
| LPTLAKFSPY (also called start 246) [PRAME peptide LPTLAKFSPY] | < 1 µM |

These binders were tested against T2, HLA-B8 (B*0801) (human) (assay: cell competition vs FLRGRAC(FI)GL, stripped Vavy B-LCL, FACS).
T2 construct: Acid-stripped B-LCL

| IC50 | Binder |
| --- | --- |
| 1.67 µM | QMINLRRLLL (also called start 258) [PRAME peptide QMINLRRLLL] |
| < 1 µM | MINLRRLL (also called start 259) [PRAME peptide MINLRRLL] |

The remaining lines, values behind:

| Binder | IC50 |
| --- | --- |
| INLRRLLL (also called start 260) [PRAME peptide INLRRLLL] | < 1 µM |
| YLHARLREL (also called start 462) [PRAME peptide YLHARLREL] | < 1 µM |

The binders below were run against T3, HLA-A1 (A*0101) (human) (assay: cell competition vs YLEPAC(FI)AKY, stripped CAA B-LCL, FACS).
T3 construct: Acid-stripped B-LCL

| IC50 | Binder |
| --- | --- |
| > 1 µM | CSQLTTLSFY (also called start 405) [PRAME peptide CSQLTTLSFY] |
| 2 µM | GTLHLERLAY (also called start 453) [PRAME peptide GTLHLERLAY] |

More lines, now with the values behind:

| Binder | IC50 |
| --- | --- |
| SLQCLQALY (also called start 294) [PRAME peptide SLQCLQALY] | 2 µM |
| FLSLQCLQALY (also called start 292) [PRAME peptide FLSLQCLQALY] | 1 µM |
| YISPEKEEQY (also called start 275) [PRAME peptide YISPEKEEQY] | 3 µM |
| LSHIHASSY [PRAME peptide LSHIHASSY] | 1 µM |

Each binder was assayed against T4, HLA-B61 (B*4002) (human) (assay: competition vs GEFGGC(FI)GSV on stripped B-LCL, FACS).
T4 construct: HLA class I on acid-stripped EBV-transformed B cells (B-LCL)

| IC50 | Binder |
| --- | --- |
| < 1 µM | RELFPPLFMA [PRAME 50-59 RELFPPLFMA] |
| < 1 µM | LETFKAVL [PRAME 94-101 LETFKAVL] |

What follows are binders tested against T5, HLA-B62 (B*1501) (human) (assay: cell competition vs YLGEFSC(FI)TY, stripped BSM B-LCL, FACS).
T5 construct: Acid-stripped B-LCL

| IC50 | Binder |
| --- | --- |
| 2.41 µM | LQHLIGLSNL (also called start 427) [PRAME peptide LQHLIGLSNL] |
| 2.56 µM | LLRHVMNPL (also called start 316) [PRAME peptide LLRHVMNPL] |

Second part, the binder before the results:

| Binder | IC50 |
| --- | --- |
| ALYVDSLFF (also called start 300) [PRAME peptide ALYVDSLFF] | < 1 µM |
| VLYPVPLESY (also called start 439) [PRAME peptide VLYPVPLESY] | 1.66 µM |
| GQHLHLETF (also called start 89) [PRAME peptide GQHLHLETF] | 2.39 µM |

Each binder was assayed against T6, HLA-A3 (A*0301) (human) (assay: cell competition vs KVFPC(FI)ALINK, stripped EKR B-LCL, FACS).
T6 construct: Acid-stripped B-LCL

| IC50 | Binder |
| --- | --- |
| < 1 µM | CTWKLPTLAK (also called start 242) [PRAME peptide CTWKLPTLAK] |
| 4 µM | HLIGLSNLTH (also called start 429) [PRAME peptide HLIGLSNLTH] |
| 1 µM | RLAYLHARLR (also called start 459) [PRAME peptide RLAYLHARLR] |
| < 1 µM | CLPLGVLMK (also called start 80) [PRAME peptide CLPLGVLMK] |
| < 1 µM | SMSVWTSPR (also called PRA16-24; start 16) [PRAME peptide SMSVWTSPR] |

Each binder was assayed against T7, HLA-B35 (B*3501) (human) (assay: competition vs NPDIVC(FI)YQY on stripped B-LCL, FACS).
T7 construct: HLA class I on acid-stripped EBV-transformed B cells (B-LCL)

| IC50 | Binder |
| --- | --- |
| 1.98 µM | SPYLGQMINL [PRAME 253-262 SPYLGQMINL] |
| 2.6 µM | GACDELFSY [PRAME 186-194 GACDELFSY] |

Continued, binder first:

| Binder | IC50 |
| --- | --- |
| FPPLFMAAF [PRAME 53-61 FPPLFMAAF] | < 1 µM |
| LPTLAKFSPY [PRAME 246-255 LPTLAKFSPY] | 0.11 µM |
| LPRELFPPL [PRAME 48-56 LPRELFPPL] | < 1 µM |
| LPRELFPPLF [PRAME 48-57 LPRELFPPLF] | 1.58 µM |

What follows are binders tested against T8, HLA-B62 (B*1501) (human) (assay: competition vs YLGEFSC(FI)TY on stripped B-LCL, FACS).
T8 construct: HLA class I on acid-stripped EBV-transformed B cells (B-LCL)

| IC50 | Binder |
| --- | --- |
| < 1 µM | ALYVDSLFF [PRAME 300-308 ALYVDSLFF] |
| 2.41 µM | LQHLIGLSNL [PRAME 427-436 LQHLIGLSNL] |
| 2.56 µM | LLRHVMNPL [PRAME 316-324 LLRHVMNPL] |
| 2.39 µM | GQHLHLETF [PRAME 89-97 GQHLHLETF] |

What follows are binders tested against T9, HLA-A3 (A*0301) (human) (assay: competition vs KVFPC(FI)ALINK on stripped B-LCL, FACS).
T9 construct: HLA class I on acid-stripped EBV-transformed B cells (B-LCL)

| IC50 | Binder |
| --- | --- |
| < 1 µM | CLPLGVLMK [PRAME 80-88 CLPLGVLMK] |
| 4 µM | HLIGLSNLTH [PRAME 429-438 HLIGLSNLTH] |
| 0.7 µM | CTWKLPTLAK [PRAME 242-251 CTWKLPTLAK] |
| < 1 µM | SMSVWTSPR (also called PRA16-24; PRA(16-24)) [PRAME 16-24 SMSVWTSPR] |

What follows are binders tested against T10, HLA-B61 (B*4002) (human) (assay: cell competition vs GEFGGC(FI)GSV, stripped Swei007 B-LCL, FACS).
T10 construct: Acid-stripped B-LCL

| IC50 | Binder |
| --- | --- |
| < 1 µM | DEALAIAAL (also called start 37) [PRAME peptide DEALAIAAL] |
| < 1 µM | RELFPPLFMA (also called start 50) [PRAME peptide RELFPPLFMA] |

Second part, the binder before the results:

| Binder | IC50 |
| --- | --- |
| LETFKAVL (also called start 94) [PRAME peptide LETFKAVL] | < 1 µM |
| RELFPPLFM (also called start 50) [PRAME peptide RELFPPLFM] | < 1 µM |

What follows are binders tested against T11, HLA-A1 (A*0101) (human) (assay: competition vs YLEPAC(FI)AKY on stripped B-LCL, FACS).
T11 construct: HLA class I on acid-stripped EBV-transformed B cells (B-LCL)

| IC50 | Binder |
| --- | --- |
| 3 µM | YISPEKEEQY [PRAME 275-284 YISPEKEEQY] |
| < 1 µM | CSQLTTLSFY [PRAME 405-414 CSQLTTLSFY] |
| 1 µM | LSHIHASSY [PRAME 267-275 LSHIHASSY] |
| 2 µM | SLQCLQALY [PRAME 294-302 SLQCLQALY] |
| 1 µM | FLSLQCLQALY [PRAME 292-302 FLSLQCLQALY] |

Each binder was assayed against T12, HLA-B60 (B*4001) (human) (assay: cell competition vs KESTC(FI)HLVL, stripped DKB B-LCL, FACS).
T12 construct: Acid-stripped B-LCL

| IC50 | Binder |
| --- | --- |
| 2.91 µM | KDEALAIAAL (also called start 36) [PRAME peptide KDEALAIAAL] |
| 1.48 µM | RELFPPLFM (also called start 50) [PRAME peptide RELFPPLFM] |
| < 1 µM | YEDIHGTLHL (also called start 448) [PRAME peptide YEDIHGTLHL] |
| 1.55 µM | DEALAIAAL (also called start 37) [PRAME peptide DEALAIAAL] |
